Reference: PMC3764169

Target: αVβ3 integrin (human (endogenous in THP-1)) (UniProt P06756)
UniProt P06756, sequence (P06756 31-1048, chain 1 of 2): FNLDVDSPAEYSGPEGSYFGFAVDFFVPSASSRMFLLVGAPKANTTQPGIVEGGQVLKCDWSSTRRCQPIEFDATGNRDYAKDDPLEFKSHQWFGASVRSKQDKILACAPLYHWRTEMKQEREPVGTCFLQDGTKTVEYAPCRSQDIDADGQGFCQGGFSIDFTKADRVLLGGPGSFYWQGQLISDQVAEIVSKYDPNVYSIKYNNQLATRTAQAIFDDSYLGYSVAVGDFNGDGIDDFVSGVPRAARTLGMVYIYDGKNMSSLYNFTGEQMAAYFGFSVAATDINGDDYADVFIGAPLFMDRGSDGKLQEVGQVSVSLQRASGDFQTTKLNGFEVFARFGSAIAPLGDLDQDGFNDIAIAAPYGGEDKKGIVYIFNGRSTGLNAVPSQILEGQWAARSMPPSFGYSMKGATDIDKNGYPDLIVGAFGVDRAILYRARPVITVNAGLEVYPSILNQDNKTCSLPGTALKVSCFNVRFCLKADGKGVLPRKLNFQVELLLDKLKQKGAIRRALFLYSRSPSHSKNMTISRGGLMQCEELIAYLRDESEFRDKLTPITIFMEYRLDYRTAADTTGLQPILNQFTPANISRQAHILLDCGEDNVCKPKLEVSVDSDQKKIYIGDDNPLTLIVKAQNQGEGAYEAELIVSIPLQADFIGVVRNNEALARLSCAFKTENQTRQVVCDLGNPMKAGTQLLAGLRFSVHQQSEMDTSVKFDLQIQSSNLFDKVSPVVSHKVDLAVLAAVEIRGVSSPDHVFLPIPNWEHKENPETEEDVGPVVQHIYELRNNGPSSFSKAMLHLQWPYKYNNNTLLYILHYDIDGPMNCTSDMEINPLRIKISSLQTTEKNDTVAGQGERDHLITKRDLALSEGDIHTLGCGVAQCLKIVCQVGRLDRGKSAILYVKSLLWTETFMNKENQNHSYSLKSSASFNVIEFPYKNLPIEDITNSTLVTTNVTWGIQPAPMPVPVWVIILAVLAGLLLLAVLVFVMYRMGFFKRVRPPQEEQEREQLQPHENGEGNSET
UniProt P06756, sequence (P05106 27-788, chain 2 of 2, further chain): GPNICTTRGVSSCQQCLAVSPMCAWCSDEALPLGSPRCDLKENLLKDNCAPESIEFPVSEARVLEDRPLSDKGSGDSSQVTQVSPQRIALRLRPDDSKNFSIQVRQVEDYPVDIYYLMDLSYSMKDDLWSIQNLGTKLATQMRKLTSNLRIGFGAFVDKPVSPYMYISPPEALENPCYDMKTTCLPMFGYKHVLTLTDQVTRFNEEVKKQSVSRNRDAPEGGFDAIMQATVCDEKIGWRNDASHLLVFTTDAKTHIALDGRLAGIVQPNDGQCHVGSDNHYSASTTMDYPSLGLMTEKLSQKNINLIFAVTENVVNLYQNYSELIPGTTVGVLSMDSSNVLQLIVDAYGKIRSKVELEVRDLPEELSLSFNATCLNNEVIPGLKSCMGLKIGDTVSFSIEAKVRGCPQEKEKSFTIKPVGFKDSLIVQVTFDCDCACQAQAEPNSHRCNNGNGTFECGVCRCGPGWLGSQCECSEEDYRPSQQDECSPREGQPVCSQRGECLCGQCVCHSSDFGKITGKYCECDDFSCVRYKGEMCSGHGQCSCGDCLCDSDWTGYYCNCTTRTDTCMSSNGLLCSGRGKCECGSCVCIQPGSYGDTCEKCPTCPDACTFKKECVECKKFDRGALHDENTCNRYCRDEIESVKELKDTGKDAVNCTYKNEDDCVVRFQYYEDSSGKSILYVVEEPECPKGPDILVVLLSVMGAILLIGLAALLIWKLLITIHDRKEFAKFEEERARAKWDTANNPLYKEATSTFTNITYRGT

Lunasin (peptide)
decrease in free intracellular Ca^2+ (Fluo-4, live-cell confocal imaging) in LPS-induced THP-1 macrophages after lunasin (1 µM), over 6.67 min (400 frames); resurgence after 30 min: 34.6%
